Data from patent publication US20190389914A1 (University of California, published 2019).
Numbering of substitutions follows the chain as printed.

Tests used:
Test in all cases: Y2H, beta-gal staining
[1] = target: T1, GAL4 activation domain fusion to HAB1 E203T (Arabidopsis thaliana (Mouse-ear cress), UniProt Q9CAJ0 4-511)
T1 construct: Mutant of the pACT-HAB1 template, which lacks the three N-terminal amino acids of HAB1
T1 sequence: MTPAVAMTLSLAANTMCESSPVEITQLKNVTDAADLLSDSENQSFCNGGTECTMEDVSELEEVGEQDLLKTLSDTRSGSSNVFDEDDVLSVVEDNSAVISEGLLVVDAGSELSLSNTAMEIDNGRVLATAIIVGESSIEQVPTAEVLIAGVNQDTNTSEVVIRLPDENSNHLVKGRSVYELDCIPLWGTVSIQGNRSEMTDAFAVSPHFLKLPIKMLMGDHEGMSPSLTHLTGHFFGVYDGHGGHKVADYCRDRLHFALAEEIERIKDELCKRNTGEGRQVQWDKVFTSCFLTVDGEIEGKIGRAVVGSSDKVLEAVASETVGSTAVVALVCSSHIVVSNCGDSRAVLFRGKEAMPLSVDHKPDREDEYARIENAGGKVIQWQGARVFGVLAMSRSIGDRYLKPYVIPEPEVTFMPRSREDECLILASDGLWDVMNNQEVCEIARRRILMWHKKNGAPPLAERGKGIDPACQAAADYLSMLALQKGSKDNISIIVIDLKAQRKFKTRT

[2] = target: T2, GAL4 activation domain fusion to HAB1 E203W (Arabidopsis thaliana (Mouse-ear cress), UniProt Q9CAJ0 4-511)
T2 construct: Mutant of the pACT-HAB1 template, which lacks the three N-terminal amino acids of HAB1
T2 sequence: T1 sequence with T200W

[3] = target: T3, GAL4 activation domain fusion to HAB1 V393Q (Arabidopsis thaliana (Mouse-ear cress), UniProt Q9CAJ0 4-511)
T3 construct: Mutant of the pACT-HAB1 template, which lacks the three N-terminal amino acids of HAB1
T3 sequence: T1 sequence with T200E, V390Q

[4] = target: T4, GAL4 activation domain fusion to HAB1^V393R (Arabidopsis thaliana (Mouse-ear cress), UniProt Q9CAJ0 4-511)
T4 construct: Mutant of the pACT-HAB1 template, which lacks the three N-terminal amino acids of HAB1; Denoted HAB1^!
T4 sequence: T1 sequence with T200E, V390R

[5] = target: T5, GAL4 activation domain fusion to HAB1 V393K (Arabidopsis thaliana (Mouse-ear cress), UniProt Q9CAJ0 4-511)
T5 construct: Mutant of the pACT-HAB1 template, which lacks the three N-terminal amino acids of HAB1
T5 sequence: T1 sequence with T200E, V390K

Measured: binding result

B1: GAL4 DNA binding domain fusion to PYR1 (pBD-PYR1), wild type (receptor)
chain: MKLLSSIEQACDICRLKKLKCSKEKPKCAKCLKNNWECRYSPKTKRSPLTRAHLTEVESRLERLEQLFLLIFPREDLDMILKMDSLQDIKALLTGLFVQDNVNKDAVTDRLASVETDMPLTLRQHRISATSSSEESSNKGQRQLTVSMPSELTPEERSELKNSIAEFHTYQLDPGSCSSLHAQRIHAPPELVWSIVRRFDKPQTYKHFIKSCSVEQNFEMRVGCTRDVIVISGLPANTSTERLDILDDERRVTGFSIIGGEHRLTNYKSVTTVHRFEKENRIWTVVLESYVVDMPEGNSEDDTRMFADTVVKLNLQKLATVAEAMARNSGDGSGSQVT
notes: Yeast two-hybrid bait expressed in S. cerevisiae; also called WT
no binding (tested: 10 µM ABA): all assays above
